Earlier results, collected in publication PMC12390062.

Assays:
[1] = molecular target: nicotinic acetylcholine receptor α7 (Gallus gallus) (UniProt P22770)
[2] = molecular target: nicotinic acetylcholine receptor α-γ interface α-γ interface (Mus musculus) (UniProt P04756)
[3] = molecular target: nicotinic acetylcholine receptor α-δ interface α-δ interface (Mus musculus) (UniProt P04756)

| Substance | Kd [1] [µM] | Kd [2] [µM] | Kd [3] [µM] |
| --- | --- | --- | --- |
| wNTX5 (Group 3b (ii) toxin) (from UniProt O42255) | 90 |  |  |
| α-conotoxin MI (from UniProt P01521) |  | 20 | 0.00062 |
